Results on 6 molecules are retold here after patent publication US20240269312A1, “ANTIBODY DRUG CONJUGATE, AND PREPARATION METHOD THEREFOR AND USE THEREOF” (SICHUAN KELUN-BIOTECH BIOPHARMACEUTICAL CO., LTD., priority 2021, published 2024).

For assay [1], the target named is human ROR1 (on the cell surface) (human) (UniProt Q01973). The assay can be described thus: flow cytometry, Ba/F3-ROR1 cells, D10 as detection antibody. On the technique in general: In flow cytometry, cells or beads pass a laser one at a time.
Chain of human ROR1 (on the cell surface) (human) (Q01973 30-937): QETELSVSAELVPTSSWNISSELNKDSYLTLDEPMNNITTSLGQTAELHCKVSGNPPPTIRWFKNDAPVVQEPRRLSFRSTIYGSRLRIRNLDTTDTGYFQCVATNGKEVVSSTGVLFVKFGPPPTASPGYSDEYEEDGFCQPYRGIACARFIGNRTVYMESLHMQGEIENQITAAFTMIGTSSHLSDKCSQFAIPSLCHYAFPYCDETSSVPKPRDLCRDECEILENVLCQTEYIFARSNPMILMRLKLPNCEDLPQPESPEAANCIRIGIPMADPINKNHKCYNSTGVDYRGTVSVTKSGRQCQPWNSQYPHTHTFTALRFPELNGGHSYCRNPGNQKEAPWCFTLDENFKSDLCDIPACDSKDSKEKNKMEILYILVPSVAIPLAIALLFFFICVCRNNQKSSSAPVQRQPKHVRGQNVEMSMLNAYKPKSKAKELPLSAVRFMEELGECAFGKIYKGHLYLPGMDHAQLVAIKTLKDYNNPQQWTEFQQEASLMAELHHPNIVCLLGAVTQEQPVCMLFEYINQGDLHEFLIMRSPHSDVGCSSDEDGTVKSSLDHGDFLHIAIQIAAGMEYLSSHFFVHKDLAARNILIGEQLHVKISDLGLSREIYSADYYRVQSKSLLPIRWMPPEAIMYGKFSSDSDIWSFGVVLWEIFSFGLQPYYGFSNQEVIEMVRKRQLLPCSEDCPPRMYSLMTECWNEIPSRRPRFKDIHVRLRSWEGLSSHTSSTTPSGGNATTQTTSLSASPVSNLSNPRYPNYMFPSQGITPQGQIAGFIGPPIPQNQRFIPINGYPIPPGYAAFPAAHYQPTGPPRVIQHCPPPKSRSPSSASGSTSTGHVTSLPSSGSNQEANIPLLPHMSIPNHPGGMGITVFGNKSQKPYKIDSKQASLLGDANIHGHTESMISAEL
For assay [2], the target named is T1, human ROR1 (on the cell surface) (human, UniProt Q01973 30-937).
T1 construct: whole, on cells; Ba/F3 cells carry it by lentiviral transduction; also called Ba/F3-ROR1; ROR1 on the surface of human cells
T1 sequence (Q01973 30-937): as above
The assay can be described thus: flow cytometry, A549 cells. The method, then:
(§1) The affinities of 19F6_Hu35V1, 3D8_HuC24 and 38F8_Hu57 to ROR1 on the surface of human cells were determined by flow cytometry.
(§2) In addition to Ba/F3-ROR1 overexpression cells, human mantle cell lymphoma cell line Jeko-1 (Nanjing Cobioer Biosciences), human colon cancer cell line HT-29 (the Cell Bank of the Chinese Academy of Sciences), human lung cancer cell line A549 (the Cell Bank of the China Academy of Sciences) were also used for flow cytometry analysis. Anti-ROR1 antibody UC961 (the VH and VL of antibody UC961 were SEQ ID NO: 5 and 6 disclosed in WO2018237335A1, respectively) and anti-TNP antibody were used as positive control and negative control, respectively. Ba/F3-ROR1, Jeko-1, HT-29 and A549 cells were incubated with different concentration gradients of the purified humanized antibodies on ice for 30 minutes, respectively, washed with flow buffer (PBS+2% FBS) twice, then incubated with goat anti-human fluorescent secondary antibody (Jackson ImmunoResearch) on ice for 30 minutes, and finally loaded on the machine for detection.

The target of assay [3] is T1, human ROR1 (on the cell surface). Description: flow cytometry, A549 cells. On the procedure: as §1, §2
This is another data set of the same source.

Assay [4] shares this target. The assay can be described thus: flow cytometry, A549 cells. The method, then: as §1, §2
This is another data set of the same source.

Assay [5] shares this target. The assay can be described thus: flow cytometry, HT-29 cells. On the procedure: as §1, §2
The target is the same in assay [6]. Description: flow cytometry, HT-29 cells. On the procedure:
as §1, §2
This is another data set of the same source.

Assay [7] has the same target. Description: flow cytometry, HT-29 cells. The method, then: as §1, §2
The source holds these as a separate data set.

The target is the same in assay [8]. Description: flow cytometry, Jeko-1 cells.
Assay [9] shares this target. The assay can be described thus: flow cytometry, Jeko-1 cells. The method, then: as §1, §2
The source holds these as a separate data set.

Assay [10] shares this target. Description: flow cytometry, Jeko-1 cells. On the procedure:
as §1, §2
The source holds these as a separate data set.

For assay [11] the target is unchanged. Description: flow cytometry, Ba/F3-ROR1 cells. On the procedure:
as §1, §2

Assay [12] shares this target. The assay can be described thus: flow cytometry, Ba/F3-ROR1 cells. On the procedure:
as §1, §2
This is another data set of the same source.

The target is the same in assay [13]. The assay can be described thus: flow cytometry, Ba/F3-ROR1 cells. The method, then: as §1, §2
This is another data set of the same source.

The target in assay [14] is T2, human ROR1 ECD protein (human, UniProt Q01973 30-406).
T2 construct: extracellular domain; also called human ROR ECD protein
T2 sequence (Q01973 30-406): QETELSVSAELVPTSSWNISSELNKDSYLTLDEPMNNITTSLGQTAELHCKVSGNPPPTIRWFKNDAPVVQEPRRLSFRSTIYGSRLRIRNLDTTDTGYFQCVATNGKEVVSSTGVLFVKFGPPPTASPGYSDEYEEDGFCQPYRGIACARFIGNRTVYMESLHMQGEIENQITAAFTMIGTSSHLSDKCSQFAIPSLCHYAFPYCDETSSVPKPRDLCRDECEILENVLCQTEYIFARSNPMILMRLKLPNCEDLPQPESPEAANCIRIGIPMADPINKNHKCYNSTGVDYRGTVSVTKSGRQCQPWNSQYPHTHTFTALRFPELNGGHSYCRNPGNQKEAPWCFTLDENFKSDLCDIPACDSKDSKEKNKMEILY
The assay can be described thus: BLI (Octet ForteBio), antibody on AHC probe, ROR1 ECD in solution, 1:1 model; average of three determinations. For orientation: In BLI a coated tip is dipped into the sample, and binding shifts an interference pattern.

Assay [15] has as its target human ROR1 ECD protein (Homo sapiens, UniProt Q01973). Description: Dynamic affinity determination by Octet ForteBio. In kind it is binding. To be noted: for kdis / kon: 1:1 kinetic binding model, UC961 value is an average of three determinations. On the procedure: The dynamic affinities of 19F6_Hu35V1, 3D8_HuC24, 38F8_Hu57 and the positive control PGP-1501 antibody UC961 to human ROR1 ECD protein were determined by Octet ForteBio method. The specific experimental steps were as follows: the anti-human IgG Fc AHC probe (ForteBio) was first bound to the antibody to be tested to a response signal value of 0.8-1.2 nm, and the dynamic affinity was measured by immersing the antibody-coated probe into wells containing human ROR ECD protein at different concentrations (16, 8, 4, 2, 1, 0.5, 0.25, and 0 μg/mL), the binding was conducted for 2-4 minutes, followed by dissociation for 4-6 minutes, 1:1 kinetic binding model was used for all fitting analysis.

Assay [16] deals with T2, human ROR1 ECD protein. The assay can be described thus: BLI (Octet ForteBio), antibody on AHC probe, ROR1 ECD in solution. On the procedure:
The dynamic affinities of 19F6_Hu35V1, 3D8_HuC24, 38F8_Hu57 and the positive control PGP-1501 antibody UC961 to human ROR1 ECD protein were determined by Octet ForteBio method.

Chain of human ROR1 ECD protein (Homo sapiens, UniProt Q01973) (Q01973 30-406 limits assumed): as the sequence (Q01973 30-406) above

B1: Anti-human ROR1 antibody D10 (antibody, from another filing, V domains shown)
VH: QVQLKESGPGLVAPSQTLSITCTVSGFSLTSYGVHWVRQPPGKGLEWLGVIWAGGFTNYNSALKSRLSISKDNSKSQVLLKMTSLQTDDTAMYYCARRGSSYSMDYWGQGTSVIVSS
VL: EIVLSQSPAITAASLGQKVTITCSASSNVSYIHWYQQRSGTSPRPWIYEISKLASGVPVRFSGSGSGTSYSLTISSMEAEDAAIYYCQQWNYPLITFGSGTKLEIQ
In assay [1], B1 came in with a positive rate of 100%.

B2: Anti-ROR1 antibody UC961 (antibody, V domains shown)
VH: QVQLQESGPGLVKPSQTLSLTCTVSGYAFTAYNIHWVRQAPGQGLEWMGSFDPYDGGSSYNQKFKDRLTISKDTSKNQVVLTMTNMDPVDTATYYCARGWYYFDYWGHGTLVTVSS
VL: DIVMTQTPLSLPVTPGEPASISCRASKSISKYLAWYQQKPGQAPRLLIYSGSTLQSGIPPRFSGSGYGTDFTLTINNIESEDAAYYFCQQHDESPYTFGEGTKVEIK
Regarding B2, the EC50 (usually the concentration giving half of the maximal effect) in assay [2] came out at 0.16 nM; in assay [3], 0.46 nM; in assay [4], 0.21 nM; in [5], 0.2 nM; in assay [6], 0.21 nM; in [7] it was 0.37 nM. Also, the EC50 worked out at 0.36 nM in assay [8]; 0.14 nM in assay [9]; 0.06 nM in assay [10]; 0.3 nM in assay [11]; 0.31 nM in [12]; 1.07 nM in assay [13]. The dissociation constant Kd (commonly the equilibrium constant for the complex coming apart) with human ROR1 ECD protein [14] was 8.73 nM. Moreover, the koff (usually the rate constant with which the complex falls apart) with human ROR1 ECD protein [14] stood at 0.0112 s⁻¹. Further, in the assay with human ROR1 ECD protein [14], the kon – broadly, the rate constant with which the complex forms – was 1.26e+06 M⁻¹ s⁻¹.

B3: 3D8_HuC24: humanized anti-ROR1 antibody; VH SEQ ID NO:9, VL SEQ ID NO:10, human IgG1 heavy and kappa light chain constant regions (antibody, V domains shown)
VH: EVQLVESGGGLVQPGGSLRLSCAASGFTFSSYAMSWVRQAPGKGLEWVASINSGGSTYYPDSVKGRFTISRDNAKNSLYLQMNSLRAEDTAVYYCARVNYYGYGDYAMDYWGQGTLVTVSS
VL: DIQMTQSPSSLSASVGDRVTITCQASQDISNYLTWFQQKPGKSPKTLIHRANRLVTGVPSRFSGSGSGTDFTFTISSLQPEDIATYYCLQYDEFPYTFGGGTKVEIK
modifications: human IgG1 and kappa constant regions; 3D8_HuC24 VH; 3D8_HuC24 VL
In the case of B3, in the assay with human ROR1 ECD protein [15], the “kdis” value was found to be 0.0153 s⁻¹ and the “kon” value came out at 586000 M⁻¹ s⁻¹. The “affinity versus control antibody UC961” value with human ROR1 ECD protein [15] (versus UC961) is recorded as “comparable”.

B4: 38F8_Hu57: humanized anti-ROR1 antibody; VH SEQ ID NO:17, VL SEQ ID NO:18, human IgG1 heavy and kappa light chain constant regions (antibody, V domains shown)
VH: EVQLVESGGGLVQPGGSLRLSCAASGFTFSNYAMSWVRQAPEKRLEWVASISSGGPTYYPDSVKGRFTVSRDNSKNTLYLQMNSLRAEDTAVYYCARGYRYDVNWYFDVWGAGTMVTVSS
VL: DIQMTQSPSSLSASVGDRVTITCQASQDISNYLTWFQQKPGKSPKTLIHRANRLVTGVPSRFSGSGSGTDYTFTISSLQPEDIAIYYCLQYDEFPYTFGGGTKVEIK
modifications: human IgG1 and kappa constant regions; 38F8_Hu57 VH; 38F8_Hu57 VL
Regarding B4, in the assay with human ROR1 ECD protein [15], the “kdis” value is 0.00242 s⁻¹ and the “kon” value was determined as 241000 M⁻¹ s⁻¹. The “affinity versus control antibody UC961” value with human ROR1 ECD protein [15] (versus UC961) is reported as “comparable”.

B5: 19F6_Hu35V1 (antibody, human IgG1, kappa, V domains shown)
VH: QVQLQESGPGLVKPSQTLSLTCTVSGYSITSDYAWNWIRQFPGKGLEWIGYISYSGSIRYNPSLKSRVTISRDTSKNQFSLKLSSVTAADTAVYYCARGEITYYFDYWGQGTLVTVSS
VL: ETTLTQSPAFMSATPGDKVTISCKASTSIDDDMNWYQQKPGEPPKLIISEGNTLRPGIPPRFSSSGYGTDFTFTINKIKSEDAATYYCLQSNDLPLTFGQGTKLEIKR
notes: Humanized anti-human ROR1 antibody, human IgG1/kappa, expressed in Expi293F cells and purified with Protein A
As for B5, the “fold stronger affinity (KD) than control antibody UC961” value with human ROR1 ECD protein [16] was found to be 5.4 fold.

B6: 19F6_Hu35V1: humanized anti-ROR1 antibody; VH SEQ ID NO:1, VL SEQ ID NO:2, human IgG1 heavy and kappa light chain constant regions (antibody, V domains shown)
VH: QVQLQESGPGLVKPSQTLSLTCTVSGYSITSDYAWNWIRQFPGKGLEWIGYISYSGSIRYNPSLKSRVTISRDTSKNQFSLKLSSVTAADTAVYYCARGEITYYFDYWGQGTLVTVSS
VL: ETTLTQSPAFMSATPGDKVTISCKASTSIDDDMNWYQQKPGEPPKLIISEGNTLRPGIPPRFSSSGYGTDFTFTINKIKSEDAATYYCLQSNDLPLTFGQGTKLEIK
modifications: human IgG1 and kappa constant regions; 19F6_Hu35V1 VH; 19F6_Hu35V1 VL
With B6, in the assay with human ROR1 ECD protein [15], the “kdis” value was 0.000863 s⁻¹ and the “kon” value was determined as 538000 M⁻¹ s⁻¹. The “dissociation rate versus control antibody UC961 (as shown by the Kdis value)” value in the assay with human ROR1 ECD protein [15] (versus UC961) is recorded as “significantly slower”.
